41 molecules from PMC11417369, “DNA sequence and chromatin differentiate sequence-specific transcription factor binding in the human malaria parasite Plasmodium falciparum” can be followed below.

Sequences and labels used below:
T1: SIP2 D1 (Plasmodium falciparum, UniProt C6KSN9 177-235)
T1 sequence: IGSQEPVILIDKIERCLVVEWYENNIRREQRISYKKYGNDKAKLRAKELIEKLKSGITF

B1: GTGCAC_site10010 (dsDNA)
DNA 1: AACCATTGGGAAAGGGTGCACATATATATATATATA
DNA 2: TATATATATATATATGTGCACCCTTTCCCAATGGTT
B2: GTGCAC_site10767 (dsDNA)
DNA 1: TGTTTTATTTAGAAGGTGCACATTAATATTAAATAA
DNA 2: TTATTTAATATTAATGTGCACCTTCTAAATAAAACA
B3: GTGCAC_site10477 (dsDNA)
DNA 1: AAATATTTCTGCAAGGTGCACTTTATAAATCTTTGA
DNA 2: TCAAAGATTTATAAAGTGCACCTTGCAGAAATATTT
B4: GTGCAC_negctrl_site708 (dsDNA)
DNA 1: TTCTATTCAAATGCAAAATTATTAAATAAAAAATAA
DNA 2: TTATTTTTTATTTAATAATTTTGCATTTGAATAGAA
B5: GTGCAC_negctrl_site392 (dsDNA)
DNA 1: TTTATTATTATATTATTTTAATTTTTCTTTAGTACA
DNA 2: TGTACTAAAGAAAAATTAAAATAATATAATAATAAA
B6: GTGCAC_negctrl_site445 (dsDNA)
DNA 1: TATGGTGTAATTTAGTGTATTATATTATTTTGGTTG
DNA 2: CAACCAAAATAATATAATACACTAAATTACACCATA
B7: GTGCAC_negctrl_site404 (dsDNA)
DNA 1: AAAAAAAAAAAGAAGGAAACATTTGACCAAAAATAT
DNA 2: ATATTTTTGGTCAAATGTTTCCTTCTTTTTTTTTTT
B8: GTGCAC_site10530 (dsDNA)
DNA 1: ATTAATAATCGAAAGGTGCACTTTGATTTGATAACA
DNA 2: TGTTATCAAATCAAAGTGCACCTTTCGATTATTAAT
B9: GTGCAC_site9987 (dsDNA)
DNA 1: ATATCTTATAATACGGTGCACTTGACATGAACAACT
DNA 2: AGTTGTTCATGTCAAGTGCACCGTATTATAAGATAT
B10: GTGCAC_negctrl_site407 (dsDNA)
DNA 1: AATGGAAAAAAAAAAATAAATACAAATAAATACAAA
DNA 2: TTTGTATTTATTTGTATTTATTTTTTTTTTTCCATT
B11: GTGCAC_site9899 (dsDNA)
DNA 1: CTTGTGCTTTATAGGGTGCACATTTTGTTTTGGTAA
DNA 2: TTACCAAAACAAAATGTGCACCCTATAAAGCACAAG
B12: GTGCAC_negctrl_site248 (dsDNA)
DNA 1: ACTACGTGTCAAAAATATTAATTACAAATGAATAAA
DNA 2: TTTATTCATTTGTAATTAATATTTTTGACACGTAGT
B13: GTGCAC_site10263 (dsDNA)
DNA 1: TTTAATTATTAAATGGTGCACTTGAAATATAAAAAT
DNA 2: ATTTTTATATTTCAAGTGCACCATTTAATAATTAAA
B14: GTGCAC_negctrl_site96 (dsDNA)
DNA 1: ATTTTTTTATAAAATTTTTATATAATTTATTATAAA
DNA 2: TTTATAATAAATTATATAAAAATTTTATAAAAAAAT
B15: GTGCAC_negctrl_site11 (dsDNA)
DNA 1: TCTTATAACAAAAAAAAATAAAAAATAAAACTATAT
DNA 2: ATATAGTTTTATTTTTTATTTTTTTTTGTTATAAGA
B16: GTGCAC_negctrl_site585 (dsDNA)
DNA 1: TTTTGATAGAAGTGTTCTAGGAATTCAACTGTAATA
DNA 2: TATTACAGTTGAATTCCTAGAACACTTCTATCAAAA
B17: GTGCAC_negctrl_site265 (dsDNA)
DNA 1: TATTTTTTTTCTTTATTTATAACGCTCAATATATTC
DNA 2: GAATATATTGAGCGTTATAAATAAAGAAAAAAAATA
B18: GTGCAC_negctrl_site663 (dsDNA)
DNA 1: ATAAAAATAAATAAATTATATAAATGTAATATGAAA
DNA 2: TTTCATATTACATTTATATAATTTATTTATTTTTAT
B19: GTGCAC_site10495 (dsDNA)
DNA 1: ATATATATAATATAGGTGCACTACTTATTTAAAAAA
DNA 2: TTTTTTAAATAAGTAGTGCACCTATATTATATATAT
B20: GTGCAC_negctrl_site299 (dsDNA)
DNA 1: AGAGAAAGAAGGGAGAAAAAATAAAATAAAATAAAA
DNA 2: TTTTATTTTATTTTATTTTTTCTCCCTTCTTTCTCT
B21: GTGCAC_negctrl_site324 (dsDNA)
DNA 1: ATATGTAAAACTTCAAAAAAATATATTTTATGACGA
DNA 2: TCGTCATAAAATATATTTTTTTGAAGTTTTACATAT
B22: GTGCAC_site10047 (dsDNA)
DNA 1: TATAATTTTTACTGGGTGCACTCGATATTTTAAATA
DNA 2: TATTTAAAATATCGAGTGCACCCAGTAAAAATTATA
B23: GTGCAC_site10574 (dsDNA)
DNA 1: AATTAATGGCTAAAGGTGCACAATATATATATTACA
DNA 2: TGTAATATATATATTGTGCACCTTTAGCCATTAATT
B24: GTGCAC_site9855 (dsDNA)
DNA 1: TTTATTTTCCAAAGGGTGCACATAGTTAAAACGATA
DNA 2: TATCGTTTTAACTATGTGCACCCTTTGGAAAATAAA
B25: GTGCAC_site10157 (dsDNA)
DNA 1: TTTATTTTCCAAAGGGTGCACATAGTTGAAACGATA
DNA 2: TATCGTTTCAACTATGTGCACCCTTTGGAAAATAAA
B26: GTGCAC_negctrl_site130 (dsDNA)
DNA 1: TTGTATTAATAATTTTTTATATTATAGTTTATAATA
DNA 2: TATTATAAACTATAATATAAAAAATTATTAATACAA
B27: GTGCAC_site9617 (dsDNA)
DNA 1: TTTTTTTTTTTTTGTGTGCACCTTATTTTTTTGTAT
DNA 2: ATACAAAAAAATAAGGTGCACACAAAAAAAAAAAAA
B28: GTGCAC_site10264 (dsDNA)
DNA 1: TTATTTATTTATTGGGTGCACTTGATTTAAATATGC
DNA 2: GCATATTTAAATCAAGTGCACCCAATAAATAAATAA
B29: GTGCAC_negctrl_site359 (dsDNA)
DNA 1: ATATAAAAAAGGGAGGTAAATGAATGTGAAACCCAA
DNA 2: TTGGGTTTCACATTCATTTACCTCCCTTTTTTATAT
B30: GTGCAC_negctrl_site184 (dsDNA)
DNA 1: TATTCTATATTTCTATTTAGAAAACATCCCAGTGTG
DNA 2: CACACTGGGATGTTTTCTAAATAGAAATATAGAATA
B31: GTGCAC_site10223 (dsDNA)
DNA 1: TTAATTATGGACAGGGTGCACATGAATAATAATACC
DNA 2: GGTATTATTATTCATGTGCACCCTGTCCATAATTAA
B32: GTGCAC_site10453 (dsDNA)
DNA 1: TATAAGTAGATAAGGGTGCACAATATAAATATATAG
DNA 2: CTATATATTTATATTGTGCACCCTTATCTACTTATA
B33: GTGCAC_site9928 (dsDNA)
DNA 1: TTAACCGGTTTATGGGTGCACATTCTTCTTAAATAA
DNA 2: TTATTTAAGAAGAATGTGCACCCATAAACCGGTTAA
B34: GTGCAC_negctrl_site581 (dsDNA)
DNA 1: AAAAAAAAATATATATAAAATTAAAAAATGTAATAT
DNA 2: ATATTACATTTTTTAATTTTATATATATTTTTTTTT
B35: GTGCAC_negctrl_site618 (dsDNA)
DNA 1: AAAAAAATTACATATCCATTTTAACATAATAAATAG
DNA 2: CTATTTATTATGTTAAAATGGATATGTAATTTTTTT
B36: GTGCAC_negctrl_site693 (dsDNA)
DNA 1: TGGACCAAACGACAAAAAAAAAGCAGAAAACAAAAA
DNA 2: TTTTTGTTTTCTGCTTTTTTTTTGTCGTTTGGTCCA
B37: GTGCAC_negctrl_site315 (dsDNA)
DNA 1: ATATACTATTAACCACATATGTGTGTTAATTTATAT
DNA 2: ATATAAATTAACACACATATGTGGTTAATAGTATAT
B38: GTGCAC_negctrl_site95 (dsDNA)
DNA 1: GCAGTCAAAAAGGAAAATATAAAAAAAGTATATGTG
DNA 2: CACATATACTTTTTTTATATTTTCCTTTTTGACTGC
B39: GTGCAC_negctrl_site64 (dsDNA)
DNA 1: TGCAAATTTAACAAAAAAAAAAAAAAAAAAAAAAAA
DNA 2: TTTTTTTTTTTTTTTTTTTTTTTTGTTAAATTTGCA
B40: GTGCAC_site10337 (dsDNA)
DNA 1: GGGATATTTTAAAGGGTGCATATTATTAAAATAATG
DNA 2: CATTATTTTAATAATATGCACCCTTTAAAATATCCC
B41: GTGCAC_negctrl_site313 (dsDNA)
DNA 1: GATATAATTATATTATGGTGTTTTTGATAGATATTT
DNA 2: AAATATCTATCAAAAACACCATAATATAATTATATC

This data set deals with T1, SIP2 D1. Put plainly: gcPBM; about 25 ug protein; PBS, 1% milk, 0.2 mg/ml BSA, salmon testes DNA, 0.03% Triton X-100. The settings on record: tags: N-terminal GST (pGEX-4T-1), kept; label: surface-attached array probe.
In the case of B1, the binding signal is 12.2 ln median PBM intensity, better of two orientations.
As to B2, the binding signal is 11.8 ln median PBM intensity, better of two orientations.
B3: the binding signal was 12.1 ln median PBM intensity, better of two orientations.
On to B4, for which the binding signal is 6.9 ln median PBM intensity, better of two orientations.
B5: the binding signal was 6.89 ln median PBM intensity, better of two orientations.
For the molecule B6, the binding signal was 6.86 ln median PBM intensity, better of two orientations.
Consider B7, for which the binding signal was 6.91 ln median PBM intensity, better of two orientations.
On to B8, for which the binding signal is 12.2 ln median PBM intensity, better of two orientations.
Regarding B9, the binding signal is 11.9 ln median PBM intensity, better of two orientations.
On to B10, for which the binding signal was 6.81 ln median PBM intensity, better of two orientations.
For B11 the value was 11.9 ln median PBM intensity, better of two orientations; for B12, 6.92 ln median PBM intensity, better of two orientations; for B13, 11.8 ln median PBM intensity, better of two orientations.
The same measure for B14: 6.82 ln median PBM intensity, better of two orientations; for B15: 6.87 ln median PBM intensity, better of two orientations.
On to B16, for which the binding signal was 6.81 ln median PBM intensity, better of two orientations.
With B17, the binding signal was 6.85 ln median PBM intensity, better of two orientations.
Take B18: the binding signal was 6.92 ln median PBM intensity, better of two orientations.
For B19 the value was 11.7 ln median PBM intensity, better of two orientations; for B20, 6.83 ln median PBM intensity, better of two orientations; for B21, 6.82 ln median PBM intensity, better of two orientations.
The same measure for B22: 12.2 ln median PBM intensity, better of two orientations.
As to B23, the binding signal is 11.7 ln median PBM intensity, better of two orientations.
Take B24: the binding signal was 11.9 ln median PBM intensity, better of two orientations.
Turning to B25, the binding signal was 11.9 ln median PBM intensity, better of two orientations.
Take B26: the binding signal is 6.82 ln median PBM intensity, better of two orientations.
In the case of B27, the binding signal is 11.8 ln median PBM intensity, better of two orientations.
With B28, the binding signal was 11.8 ln median PBM intensity, better of two orientations.
For B29, the binding signal was 6.92 ln median PBM intensity, better of two orientations.
B30: the binding signal was 6.86 ln median PBM intensity, better of two orientations.
As to B31, the binding signal was 11.9 ln median PBM intensity, better of two orientations.
Regarding B32, the binding signal is 12.1 ln median PBM intensity, better of two orientations.
With B33, the binding signal was 11.9 ln median PBM intensity, better of two orientations.
With B34, the binding signal is 6.85 ln median PBM intensity, better of two orientations.
In the case of B35, the binding signal is 6.84 ln median PBM intensity, better of two orientations.
On to B36, for which the binding signal was 6.81 ln median PBM intensity, better of two orientations.
For B37 the value was 6.87 ln median PBM intensity, better of two orientations; for B38, 6.87 ln median PBM intensity, better of two orientations; for B39, 6.92 ln median PBM intensity, better of two orientations.
As for B40, the binding signal is 11.8 ln median PBM intensity, better of two orientations.
As for B41, the binding signal is 6.92 ln median PBM intensity, better of two orientations.
